Earlier results on 1 substance are cited in article PMC3283658.

The Kd is the concentration at which binding is half-saturated.

This series concerns the target IL-15Rβγ (Homo sapiens) (UniProt P14784).
UniProt P14784, sequence (P14784 27-240, chain 1 of 2): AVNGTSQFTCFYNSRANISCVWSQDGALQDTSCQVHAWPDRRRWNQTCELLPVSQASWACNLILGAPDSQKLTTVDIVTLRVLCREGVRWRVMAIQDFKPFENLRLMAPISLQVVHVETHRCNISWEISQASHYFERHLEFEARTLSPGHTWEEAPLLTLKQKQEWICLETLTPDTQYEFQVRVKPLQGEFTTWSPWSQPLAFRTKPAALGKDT
UniProt P14784, sequence (P31785 23-262, chain 2 of 2, further chain): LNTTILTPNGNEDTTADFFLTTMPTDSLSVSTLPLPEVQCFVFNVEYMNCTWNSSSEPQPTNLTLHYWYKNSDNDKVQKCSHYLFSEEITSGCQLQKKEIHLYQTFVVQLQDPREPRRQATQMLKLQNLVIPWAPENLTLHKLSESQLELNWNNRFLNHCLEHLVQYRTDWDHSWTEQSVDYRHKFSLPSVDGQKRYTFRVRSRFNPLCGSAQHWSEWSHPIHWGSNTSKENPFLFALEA

For IL-15 (from UniProt P40933), the Kd was 4 nM.
